Data taken from patent US20230242658A1 (published 2023).
Each block holds one binder with its values, some of them ahead of it.

Key:
[1] = molecular target: T1, human 4-1BB on CHO-K1 cells (human, UniProt Q07011 24-255); assay: FACS blocking of 4-1BBL binding
[2] = molecular target: T2, cynomolgus monkey 4-1BB on CHO-K1 cells (cynomolgus monkey); assay: FACS; FIG. 12H
T2 chain: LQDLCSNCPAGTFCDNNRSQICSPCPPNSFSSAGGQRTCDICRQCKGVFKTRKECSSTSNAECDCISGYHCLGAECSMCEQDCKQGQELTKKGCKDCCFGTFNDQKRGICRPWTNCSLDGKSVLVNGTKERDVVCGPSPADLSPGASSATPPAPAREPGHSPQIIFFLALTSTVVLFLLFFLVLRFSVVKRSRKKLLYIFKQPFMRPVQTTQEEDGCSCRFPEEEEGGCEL

[3] = molecular target: T1, human 4-1BB on CHO-K1 cells; assay: FACS; FIG. 11I
[4] = molecular target: T1, human 4-1BB on CHO-K1 cells; assay: FACS blocking of 4-1BBL; FIG. 14G
[5] = molecular target: T2, cynomolgus monkey 4-1BB on CHO-K1 cells; assay: FACS
[6] = molecular target: human PD-L1 on CHO-K1 cells (human, UniProt Q9NZQ7 19-290); assay: FACS
Sequence of human PD-L1 on CHO-K1 cells (Q9NZQ7 19-290): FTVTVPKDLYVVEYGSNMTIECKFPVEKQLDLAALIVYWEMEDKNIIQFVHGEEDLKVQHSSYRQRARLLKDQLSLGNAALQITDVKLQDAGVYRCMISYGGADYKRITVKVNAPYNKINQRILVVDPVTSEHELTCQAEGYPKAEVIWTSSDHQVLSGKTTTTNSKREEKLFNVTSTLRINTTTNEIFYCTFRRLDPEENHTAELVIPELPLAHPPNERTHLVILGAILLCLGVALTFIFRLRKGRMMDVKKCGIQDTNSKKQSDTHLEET

[7] = molecular target: T1, human 4-1BB on CHO-K1 cells; assay: FACS
[8] = molecular target: T2, cynomolgus monkey 4-1BB on CHO-K1 cells; assay: FACS
[9] = molecular target: T1, human 4-1BB on CHO-K1 cells; assay: FACS blocking of 4-1BBL; FIG. 14H
[10] = molecular target: T2, cynomolgus monkey 4-1BB on CHO-K1 cells; assay: FACS; FIG. 12I
[11] = molecular target: T1, human 4-1BB on CHO-K1 cells; assay: FACS; FIG. 11J
[12] = molecular target: T2, cynomolgus monkey 4-1BB on CHO-K1 cells; assay: FACS; FIG. 12G
[13] = molecular target: T1, human 4-1BB on CHO-K1 cells; assay: FACS; FIG. 11H
[14] = molecular target: T1, human 4-1BB on CHO-K1 cells; assay: FACS; remark: listed apart in the source
Target sequence in this assay (Q07011 24-255): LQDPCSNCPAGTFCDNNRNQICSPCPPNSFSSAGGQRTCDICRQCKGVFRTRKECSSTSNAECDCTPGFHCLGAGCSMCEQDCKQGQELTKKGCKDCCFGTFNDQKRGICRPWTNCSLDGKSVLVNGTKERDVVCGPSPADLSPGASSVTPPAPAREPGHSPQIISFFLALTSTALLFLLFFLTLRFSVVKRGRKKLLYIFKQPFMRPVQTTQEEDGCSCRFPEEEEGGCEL

[15] = molecular target: T2, cynomolgus monkey 4-1BB on CHO-K1 cells; assay: FACS; FIG. 12F
[16] = molecular target: T1, human 4-1BB on CHO-K1 cells; assay: FACS blocking of 4-1BBL; FIG. 14F

B1: PR000448 (antibody, V domains shown)
VH: QVQLQQWGAGLLKPSETLSLTCAVYGGSFSGYYWSWIRQPPGKGLEWIGEIQHSGSTDSNPSLKGRVTFSVDTSKNQFSLKLNSVTAADTAVYYCARLTGPFDYWGQGTLVTVSS
VL: EIVMTQSPATLSVSPGERATLSCRASQSISSILAWYQQKPGQAPRLLIYGASTRATGIPARFSGSGSGTEFTLTISSLQSEDFAVYYCQQYYNWPLTFGGGTKVEIKR
EC50 [1]: 2.05 nM

B3: PR003549 (bispecific antibody)
light: DIQMTQSPSTLSASVGDRVTVTCRASQSIYIWLAWYQQKPGKAPNLLIYKASSLETGVPSRFSGSGSGTEFTLTISSLQPDDFATYYCQQYYGSSRTFGQGTKVEIKRTVAAPSVFIFPPSDEQLKSGTASVVCLLNNFYPREAKVQWKVDNALQSGNSQESVTEQDSKDSTYSLSSTLTLSKADYEKHKVYACEVTHQGLSSPVTKSFNRGEC
heavy: EVQLVESGGGLVQPGGSLRLSCAASGFTFSSYWMSWVRQAPGKGLEWVANIKQEGSEKYYVDSVKGRFTISRDNAKNSLYLQMNSLRAEDTAVYYCARDRAVAGAFDIWGQGTMVTVSSASTKGPSVFPLAPSSKSTSGGTAALGCLVKDYFPEPVTVSWNSGALTSGVHTFPAVLQSSGLYSLSSVVTVPSSSLGTQTYICNVNHKPSNTKVDKKVEPKSCDKTHTCPPCPAPEAAGGPSVFLFPPKPKDTLMISRTPEVTCVVVDVSHEDPEVKFNWYVDGVEVHNAKTKPREEQYNSTYRVVSVLTVLHQDWLNGKEYKCKVSNKALGAPIEKTISKAKGQPREPQVYTLPPSREEMTKNQVSLTCLVKGFYPSDIAVEWESNGQPENNYKTTPPVLDSDGSFFLYSKLTVDKSRWQQGNVFSCSVMHEALHNHYTQKSLSLSPGEPKSSDKTHTPPPPPRTEVQLLESGGGLVQLGGSLRLSCAASGFTFSRYAMTWVRQAPEKGLEWVSSISGSGDDTYYGDSVKGRFTISRDNSQNTVYLQMNSLRAEDTAVYFCAKEKAGTTGDYYYNVDVWGQGTTVTVSS
EC50 [5]: 1.86 nM | EC50 [6]: 1.56 nM | EC50 [7]: 1.9 nM

B4: PR003550 (bispecific antibody)
light: DIQMTQSPSTLSASVGDRVTVTCRASQSIYIWLAWYQQKPGKAPNLLIYKASSLETGVPSRFSGSGSGTEFTLTISSLQPDDFATYYCQQYYGSSRTFGQGTKVEIKRTVAAPSVFIFPPSDEQLKSGTASVVCLLNNFYPREAKVQWKVDNALQSGNSQESVTEQDSKDSTYSLSSTLTLSKADYEKHKVYACEVTHQGLSSPVTKSFNRGEC
heavy: EVQLVESGGGLVQPGGSLRLSCAASGFTFSSYWMSWVRQAPGKGLEWVANIKQEGSEKYYVDSVKGRFTISRDNAKNSLYLQMNSLRAEDTAVYYCARDRAVAGAFDIWGQGTMVTVSSASTKGPSVFPLAPSSKSTSGGTAALGCLVKDYFPEPVTVSWNSGALTSGVHTFPAVLQSSGLYSLSSVVTVPSSSLGTQTYICNVNHKPSNTKVDKKVEPKSCDKTHTCPPCPAPEAAGGPSVFLFPPKPKDTLMISRTPEVTCVVVDVSHEDPEVKFNWYVDGVEVHNAKTKPREEQYNSTYRVVSVLTVLHQDWLNGKEYKCKVSNKALGAPIEKTISKAKGQPREPQVYTLPPSREEMTKNQVSLTCLVKGFYPSDIAVEWESNGQPENNYKTTPPVLDSDGSFFLYSKLTVDKSRWQQGNVFSCSVMHEALHNHYTQKSLSLSPGEPKSSDKTHTPPPPPRTEVQLVESGGGVVQPGGSLRLSCAASGFTFSNYAMTWVRQAPEKGLEWVSSISGSGVSTYYADSVKGRFTISRDNSKNTLYLQMTRLTAEDTAVYFCAKEGSSETDDHYYNVDVWGQGTTVTVSS
EC50 [5]: 1.32 nM | EC50 [6]: 1.11 nM

B5: PR004268 (bispecific antibody)
light: DIQMTQSPSTLSASVGDRVTVTCRASQSIYIWLAWYQQKPGKAPNLLIYKASSLETGVPSRFSGSGSGTEFTLTISSLQPDDFATYYCQQYYGSSRTFGQGTKVEIKRTVAAPSVFIFPPSDEQLKSGTASVVCLLNNFYPREAKVQWKVDNALQSGNSQESVTEQDSKDSTYSLSSTLTLSKADYEKHKVYACEVTHQGLSSPVTKSFNRGEC
heavy: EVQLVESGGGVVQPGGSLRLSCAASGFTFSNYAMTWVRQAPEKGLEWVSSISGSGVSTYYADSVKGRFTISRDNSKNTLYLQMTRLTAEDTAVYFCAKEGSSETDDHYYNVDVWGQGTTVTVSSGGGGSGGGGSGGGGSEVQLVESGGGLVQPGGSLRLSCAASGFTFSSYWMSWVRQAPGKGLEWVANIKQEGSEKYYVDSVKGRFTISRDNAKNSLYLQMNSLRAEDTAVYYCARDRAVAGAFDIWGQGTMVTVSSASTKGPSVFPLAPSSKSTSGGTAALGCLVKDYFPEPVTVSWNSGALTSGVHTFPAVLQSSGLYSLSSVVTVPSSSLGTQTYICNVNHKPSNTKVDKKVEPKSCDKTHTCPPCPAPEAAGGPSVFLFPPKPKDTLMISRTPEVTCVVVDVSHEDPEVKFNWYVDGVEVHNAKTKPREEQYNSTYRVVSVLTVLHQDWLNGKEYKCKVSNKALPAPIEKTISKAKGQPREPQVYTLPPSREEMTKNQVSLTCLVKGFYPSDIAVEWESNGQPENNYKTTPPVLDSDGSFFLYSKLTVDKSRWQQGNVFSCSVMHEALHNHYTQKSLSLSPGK
EC50 [8]: 0.621 nM | EC50 [6]: 1.2 nM

B6: PR004270 (bispecific antibody)
chain 1: EVQLVESGGGLVQPGGSLRLSCAASGFTFSSYWMSWVRQAPGKGLEWVANIKQEGSEKYYVDSVKGRFTISRDNAKNSLYLQMNSLRAEDTAVYYCARDRAVAGAFDIWGQGTMVTVSSASTKGPSVFPLAPSSKSTSGGTAALGCLVKDYFPEPVTVSWNSGALTSGVHTFPAVLQSSGLYSLSSVVTVPSSSLGTQTYICNVNHKPSNTKVDKKVEPKSC
chain 2: not shown
EC50 [8]: 1.55 nM | EC50 [6]: 0.963 nM

B13: PR001838 (antibody, V domains shown)
VH: EVQLLESGGGLVQPGGSLRLSCAASGFTFSNYAMSWFRQPPETGLKWVSSIDGSGGDTYYADSVKGRFTISRDNSKNTLYLQMNSLRAEDTAVYYCAKEGSHGTDDSHYDVDVWGQGTTVTVSS
EC50 [12]: 0.329 nM | EC50 [13]: 0.851 nM | EC50 [14]: 0.248 nM | EC50 [15]: 1.09 nM | IC50 [16]: 1.61 nM

Results, then the binder that gave them:

EC50 [2]: 4.61 nM | EC50 [3]: 4.37 nM | IC50 [4]: 7.54 nM
B2: PR007286 (antibody, V domains shown)
VH: EVQLVESGGGLVKPGGSLRLSCAASGFTFSDYYMSWIRQAPGKGLEWVSYISSSGSTIYYADSVKGRFTISRDNAKNSLYLQMNSLRAEDTAVYYCARVKPVAGTWDWFDPWGQGTPVTVSS

IC50 [9]: 3.29 nM | EC50 [10]: 1.95 nM | EC50 [11]: 2.47 nM
B7: PR007291 (antibody, V domains shown)
VH: EVQLVESGGGLVKPGGSLRLSCVTSGFTFSDYYMNWIRQAPGKGQEWVSYISGNGSTIYYADSVKGRFTISRDNAKNSLYLQMNSLRAEDTAVYYCARVRPGGSGNYWDWFDPWGQGTPVTVSS

EC50 [2]: 0.903 nM | EC50 [3]: 1.21 nM | IC50 [4]: 1.63 nM
B8: PR007288 (antibody, V domains shown)
VH: EVQLVESGGGLVKPGGSLRLSCAASGFTFSDYYMSWFRQAPGKGLEWVSYISGSGSIIDYADSVKGRFTISRDNAKNSLYLQMNSLRAEDTAVYYCSREREAVAGTLDFDYWGQGTLVTVSS

EC50 [2]: 1.17 nM | EC50 [3]: 1.55 nM | IC50 [4]: 2.55 nM
B9: PR007287 (antibody, V domains shown)
VH: EVQLEESGGGLVKPGGSLRLSCAASGFTFSDYYMSWFRQAPGKGLEWVSYISSSGSITDYADAVKGRFNISRDNAKNSLYLQMNSLRAEDTAVYYCAREREAVAGTLDFDNWGQGTLVTVSS

IC50 [9]: 5.11 nM | EC50 [10]: 2.5 nM | EC50 [11]: 2.02 nM
B10: PR007290 (antibody, V domains shown)
VH: EVQLVESGGGVVQPGRSLRLSCAASGFTFSDYYMSWFRQAPGKGLEWVSYISSSGTTIDYADSVKGRFTISRDNAKNSLYLQMNSLRAEDTAVYYCAREREEVAGTLDFDYWGQGTPVTVSS

IC50 [9]: 11 nM | EC50 [10]: 4.11 nM | EC50 [11]: 2.49 nM
B11: PR007289 (antibody, V domains shown)
VH: EVQLVESGGGLVKPGGSLRLSCAASGFTFSDYYMSWFRQAPGKGLEWVSYISSSGSTQDYADSVKGRFTISRDNAKNSLYLQMNSLRAEDTAVYYCAREREPVAGTLDFDNWGQGTPVTVSS

EC50 [12]: 0.568 nM | EC50 [13]: 1.29 nM
B12: PR004469 (antibody, V domains shown)
VH: EVQLLESGGGLVQPGGSLRLSCAASGFTFSNYAMSWFRQPPETGLKWVSSIDASGGDTYYADSVKGRFTISRDNSKNTLYLQMNSLRAEDTAVYYCAKEGSHGTDDSHYDVDVWGQGTTVTVSS
